Laboratory results taken from paper PMC11830286, “Protein identification using Cryo-EM and artificial intelligence guides improved sample purification” (Journal of Structural Biology: X, 2025).

Biological target: the molecule itself
Test: cryo-EM structure; single particle analysis of the SEC peak of the nanoparticle preparation purified without glycine or arginine; octahedral symmetry enforced, 2.51 Å; about 0.3 mg/mL, buffer with DDM

B1: dihydrolipoamide succinyltransferase (DLST) (enzyme, E. coli BL21 (DE3), UniProt P0AFG6 1-405, looked up)
chain: MSSVDILVPDLPESVADATVATWHKKPGDAVVRDEVLVEIETDKVVLEVPASADGILDAVLEDEGTTVTSRQILGRLREGNSAGKETSAKSEEKASTPAQRQQASLEEQNNDALSPAIRRLLAEHNLDASAIKGTGVGGRLTREDVEKHLAKAPAKESAPAAAAPAAQPALAARSEKRVPMTRLRKRVAERLLEAKNSTAMLTTFNEVNMKPIMDLRKQYGEAFEKRHGIRLGFMSFYVKAVVEALKRYPEVNASIDGDDVVYHNYFDVSMAVSTPRGLVTPVLRDVDTLGMADIEKKIKELAVKGRDGKLTVEDLTGGNFTITNGGVFGSLMSTPIINPPQSAILGMHAIKDRPMAVNGQVEILPMMYLALSYDHRLIDGRESVGFLVTIKELLEDPTRLLLDV
notes: dihydrolipoamide succinyltransferase (DLST) of E. coli BL21(DE3), UniProt A0A140NDX4; host protein, no construct; the first 170 residues were unresolved in the cryo-EM map and only the catalytic domain was modelled; also called dihydrolipoyllysine-residue succinyltransferase; contaminant nanoparticle; source: endogenous, E. coli BL21(DE3) expression host; co-purified as a contaminant with …
**Q.** For B1, which “stoichiometry N” value is on record?
**A.** The value was 24.
